Tests used:
[1] = target: S. thermophile aldonolactonase 1 (Thermothelomyces thermophilus, UniProt E5LEX3); settings: substrate specificity
Experimental: (§1) Aldonolactonase activity was measured as described by Hestrin (21). The reactions were carried out in triplicate in 96-well microtiter plates. Briefly, 100 μL of 100 mM freshly dissolved sugar lactone was immediately mixed with 100 μL of 10 nM aldonolactonase enzyme buffered in 100 mM sodium acetate pH 5.0 for 1 minute at 25° C. The reaction was quenched by adding 40 μL of alkaline hydroxylamine (2.0 M hydroxylamine hydrochloride, 1.5 M sodium hydroxide) for 1 minute. Twenty microliters of 4.0 M hydrochloric acid was then added to acidify the solution and stabilize the sugar hydroxamate. Color was developed by adding 20 μL of 0.5 M ferric chloride (FeCl3) and the absorbance at 540 nm was measured. For all experiments, control measurements were made on control samples where no enzyme was added. The background hydrolysis was subtracted from the total hydrolysis in the presence of enzyme.

[2] = test system: S. thermophile Aldonolactonase 2 (Spoth1189286); assay: Standard gluconolactonase assay with recombinant S. thermophile aldonolactonase 2; type: biochemical, Sporotrichum thermophile; settings: unpurified concentrate, expressed in N. crassa
Experimental: as §1, with “Lactonase activity on gluconolactone was confirmed using the standard gluconolactonase assay (as described in other sections). The protein was not further purified because the affinity purification tag was removed by endogenous proteases in N. crassa. Aldonolactonase” for “Aldonolactonase”, “Hestrin” left out, “Color was developed by adding 20 μL of 0.5 M ferric chloride (FeCl3) and the absorbance at 540 nm was measured.” left out, “enzyme. This typically amounted to less than 10% of the total lactone.” for “enzyme.”

[3] = cited from earlier work
[4] = substrate: O=C1O[C@H](CO)[C@@H](O)[C@H](O)[C@H]1O; assay: purified protein, by the assay type
[5] = substrate: O=C1O[C@H](CO)[C@@H](O[C@@H]2O[C@H](CO)[C@@H](O)[C@H](O)[C@H]2O)[C@H](O)[C@H]1O; assay: purified protein, by the assay type; settings: other: steady-state kinetic constants; substrate of S. thermophile aldonolactonase 1; pH 5.0; 25.0 °C
Experimental: (§2) Aldonolactonase activity was measured as described by Hestrin (21). The reactions were carried out in triplicate in 96-well microtiter plates. Briefly, 100 μL of 100 mM freshly dissolved sugar lactone was immediately mixed with 100 μL of 10 nM aldonolactonase enzyme buffered in 100 mM sodium acetate pH 5.0 for 1 minute at 25° C. The reaction was quenched by adding 40 μL of alkaline hydroxylamine (2.0 M hydroxylamine hydrochloride, 1.5 M sodium hydroxide) for 1 minute. Twenty microliters of 4.0 M hydrochloric acid was then added to acidify the solution and stabilize the sugar hydroxamate. Color was developed by adding 20 μL of 0.5 M ferric chloride (FeCl3) and the absorbance at 540 nm was measured. For all experiments, control measurements were made on control samples where no enzyme was added. The background hydrolysis was subtracted from the total hydrolysis in the presence of enzyme. This typically amounted to less than 10% of the total lactone.

[6] = substrate: O=C1O[C@H](CO)[C@@H](O[C@@H]2O[C@H](CO)[C@H](O)[C@H](O)[C@H]2O)[C@H](O)[C@H]1O; assay: purified protein, by the assay type; settings: other: steady-state kinetic constants; substrate of S. thermophile aldonolactonase 1; pH 5.0; 25.0 °C
Experimental: as §2

[7] = Aldonolactonase activity of enzyme preparations on glucono-δ-lactone; type: biochemical; settings: glucono-δ-lactone as substrate, 25° C., pH 5.0
Experimental: as §1, with “enzyme. This typically amounted to less than 10% of the total lactone.” for “enzyme.”

[8] = pH profile of S. thermophile aldonolactonase 1; type: biochemical; settings: from pH 3.0 to pH 8.0; 10 nM enzyme, 50 mM glucono-δ-lactone, room temperature
Experimental: FIG. 9 depicts the pH profile of S. thermophile aldonolactonase 1. Reactions were conducted at room temperature for 1 minute with 10 nM aldonolactonase, 50 mM glucono-δ-lactone, and 100 mM buffer. Buffers used included sodium citrate, pH 3.0; sodium acetate, pH 4.0; sodium acetate, pH 5.0; sodium succinate, pH 6.0; HEPES, pH 7.0; and Tris, pH 8.0. Error bars represent the standard deviation of three replicate experiments.

[9] = Stability of aldonolactonase activity; type: physicochemical
Text: Sporotrichum thermophile is a thermophilic fungus isolated from soil and self-heating compost (3). […] During development of the present disclosure, an enzyme involved in the process of cellulose degradation was isolated from S. thermophile. As disclosed herein, an enzyme containing extracellular aldonolactonase activity was purified, identified, and characterized from the thermophilic ascomycete S. thermophile. The S. thermophile aldonolactonase hydrolyzes hexose δ-lactones over a broad range of pH values. […] (the growth condition for production of the enzyme). The expression profile and kinetic parameters of the S. thermophile aldonolactonase were determined on different substrates. The results disclosed herein provide insight into how S. thermophile utilizes aldonolactonase in nutrient acquisition, especially from hexose δ-lactones and how this enzyme can be utilized for biofuel production.
After 48 hours of growth on complex media containing cellulose, S. thermophile mycelia and residual cellulose were removed from the culture by filtering over 0.2 micron polyethersulfone (PES) filters. The filtered culture broth was then concentrated and buffer exchanged using tangential flow filtration with a 10 kDa molecular weight cut-off (MWCO) PES membrane (Millipore, Billerica, Mass.) into 25 mM 4-(2-hydroxyethyl)-1-piperazineethanesulfonic acid (HEPES) buffer, pH 7.4. […]

[10] = other: steady-state kinetic constants, substrate of S. thermophile aldonolactonase 1, pH 5.0, 25.0 °C

For `O=C1O[C@H](CO)[C@H](O)[C@H]1O` [Xylonolactone], the “hydrolysis by S. thermophile aldonolactonase 1” value (shortened to “hydrolysis”) [1] was “not hydrolyzed”.

In the case of `O=C1O[C@H](CO)[C@@H](O[C@@H]2O[C@H](CO)[C@@H](O)[C@H](O)[C@H]2O)[C@H](O)[C@H]1O` [D-Cellobiono-δ-lactone], the “hydrolysis” value [1] is reported as “completely hydrolyze”.

With `O=C1O[C@H](CO)[C@@H](O[C@@H]2O[C@H](CO)[C@H](O)[C@H](O)[C@H]2O)[C@H](O)[C@H]1O` [D-Lactono-δ-lactone] the “hydrolysis” value [1] was “completely hydrolyze”.

For `O=C1O[C@H](CO)[C@@H](O)[C@@H]1O` [arabinolactone], the “hydrolysis” value [1] was “not hydrolyzed”.

In the case of `O=C1O[C@H](CO)[C@@H](O)[C@H](O)[C@H]1O` [D-Glucono-δ-lactone], the “hydrolysis” value [1] is listed as “completely hydrolyze”, the “lactonase activity on gluconolactone” value [2] is listed as “confirmed” and the “equilibrium constant between glucono-δ-lactone and gluconic acid” value ([3]; favoring gluconic acid) is listed as 7.7. The half-life ([3]; in water at room temperature and pH 5.0) was “approximately 1 hour”.

B1: S. thermophile aldonolactonase 1 (Thermothelomyces thermophilus) (protein)
chain: APVCGGGSASDLLWVTTYPAGEGAQGKLLTLKLDGSKLEVVAESDTCGPYPSWLTQAGDVLYCVDEAWGGDHGTLHSLKINDDHSFTNLSQHETVGGPVSTVIYGKDGLGLAVADYAGGGIDTFNIADPAAIKLIKSLVYPAPTDGLPDPQNSARPHEAILDPTGEFLVFPDLGADQIRVLKVDKETLEYVEKPSYTDFDRGTGPRHGAFFKSGDKTFFYLVGELSNLLQGFSVAYNDDDSLTFTRIHNSTTHGDDKPLPEDTAAAELWIAPGSNFLTLSSRFESSLEYTVANGTKVPSDPLITFSIDKETGALTHVQSAPAGGINPRHFSFNSDGTRVASALQSDGRVVVFERDPSTGKIGKATAEGDVEGMPNFATFKQ
In the case of B1, the kcat/Km ([4]; other: 25° C. and pH 5.0) is reported as 600000 M⁻¹ s⁻¹, the Km [4, 10] is reported as 20.3 mM and the kcat [4, 10] is reported as 11700 s⁻¹. For the same molecule, the kcat/Km [4, 10] was 580000 M⁻¹ s⁻¹, the Km [5] was 21.6 mM and the kcat [5] was 29100 s⁻¹. The kcat/Km [5] was 1.35e+06 ± 120000 M⁻¹ s⁻¹, the Km [6] was 5.9 mM and the kcat [6] was 7400 s⁻¹. The kcat/Km [6] was 1.25e+06 ± 520000 M⁻¹ s⁻¹.

B2: S. thermophile aldonolactonase 1: extracellular aldonolactonase purified from S. thermophile culture broth, encoded by Spoth11109678 (SEQ ID NO: 1) (protein)
chain: MRTSYGVAFALSAGFRLATAAPVCGGGSASDLLWVTTYPAGEGAQGKLLTLKLDGSKLVVAESDTCGPYPSWLTQAGDVLYCVDEAWGGDHGTLHSLKINDDHSFTNLSQHETVGGPVSTVIYGKDGLGLAVADYAGGGIDTFNIADPAAIKLIKSLVYPAPTDGLPDPQNSARPHEAILDPTGEFLVFPDLGADQIRVLKVDKETLEYVEKPSYTDFDRGTGPRHGAFFKSGDKTFFYLVGELSNLLQGFSVAYNDDDSLTFTRIHNSTTHGDDKPLPEDTAAAELWIAPGSNFLTLSSRFESSLEYTVANGTKVPSDPLITFSIDKETGALTHVQSAPAGGINPRHFSFNSDGTRVASALQSDGRVVVFERDPSTGKIGKATAEGDVEGMPNFATFKQ
modifications: Sporotrichum thermophile; extracellular aldonolactonase 1
For B2, the “activity relative to that reported for lactonases isolated from other filamentous fungi” value [7] was “approximately 20 fold”, the change in activity [8] was 3 fold and the stability ([9]; 50° C. (growth condition for production of the enzyme)) was “stable for several days”. The “storage stability of aldonolactonase activity” value ([9]; stored at −80° C.) was “stable for several months”.

Reference: US8703452B2, “Extracellular aldonolactonase” (The Regents of the University of California, priority 2010, dated 2014)
